Assay results: the supplement of paper PMC9112550, “Optimization of the antimicrobial peptide Bac7 by deep mutational scanning” (BMC Biology, 2022)

Tested on: Escherichia coli TOP10
Assay: shrunken log2 fold change of peptide-encoding DNA abundance (4.5 h post-induction vs induction); higher = less antimicrobial activity (less host growth inhibition)
Details: time post-induction: 4.5 h; library: site-saturation at positions 5, 18, 19, 20
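Note: peptides expressed intracellularly from a pBAD plasmid library in pooled LB shake-flask culture, induced with 0.3% L-arabinose, DNA abundance read by NGS, three biological replicates, DESeq2 with apeglm shrinkage.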

| Sequence | shrunken log2 fold change |
| --- | --- |
| RRIRFRPPRLPRPRPRPTNAPRP | -0.143 |
| RRIRMRPPRLPRPRPRPLQVPRP | 0.21 |
| RRIRLRPPRLPRPRPRPAVDPRP | 0.163 |
| RRIRSRPPRLPRPRPRPYANPRP | -0.185 |
| RRIRFRPPRLPRPRPRPEENPRP | -0.00844 |
| RRIRARPPRLPRPRPRPRDFPRP | 0.0137 |
| RRIRTRPPRLPRPRPRPNMDPRP | -0.508 |
| RRIRLRPPRLPRPRPRPEPAPRP | 0.0966 |
| RRIRNRPPRLPRPRPRPRGCPRP | 0.366 |
| RRIRHRPPRLPRPRPRPEWQPRP | 0.145 |
| RRIRRRPPRLPRPRPRPIKFPRP | -0.202 |
| RRIRTRPPRLPRPRPRPPAKPRP | 1.11 |
| RRIRIRPPRLPRPRPRPVVVPRP | -0.0561 |
| RRIRIRPPRLPRPRPRPHRMPRP | -1.01 |
| RRIRMRPPRLPRPRPRPNDPPRP | -0.516 |
| RRIRARPPRLPRPRPRPQAIPRP | 0.281 |
| RRIRCRPPRLPRPRPRPRHWPRP | 0.261 |
| RRIRHRPPRLPRPRPRPTLMPRP | -0.0715 |
| RRIRPRPPRLPRPRPRPYIVPRP | -0.15 |
| RRIRYRPPRLPRPRPRPQPKPRP | -0.0232 |
| RRIRLRPPRLPRPRPRPRLMPRP | -0.197 |
| RRIRPRPPRLPRPRPRPNHYPRP | -0.576 |
| RRIRSRPPRLPRPRPRPMRQPRP | 0.728 |
| RRIRDRPPRLPRPRPRPECKPRP | 0.109 |
| RRIRNRPPRLPRPRPRPNCCPRP | -0.124 |

| Sequence | shrunken log2 fold change |
| --- | --- |
| RRIRERPPRLPRPRPRPDETPRP | -0.015 |
| RRIRARPPRLPRPRPRPCAVPRP | 0.365 |
| RRIRWRPPRLPRPRPRPTCQPRP | 0.729 |
| RRIRKRPPRLPRPRPRPGMHPRP | 0.213 |
| RRIRRRPPRLPRPRPRPMKAPRP | 0.0483 |
| RRIRGRPPRLPRPRPRPRFPPRP | 0.412 |
| RRIRPRPPRLPRPRPRPIGKPRP | -0.156 |
| RRIRFRPPRLPRPRPRPRTMPRP | 0.0577 |
| RRIRYRPPRLPRPRPRPKQWPRP | 0.0575 |
| RRIRHRPPRLPRPRPRPLGYPRP | -0.0228 |
| RRIRTRPPRLPRPRPRPVPWPRP | 0.95 |
| RRIRLRPPRLPRPRPRPPWSPRP | 0.259 |
| RRIRERPPRLPRPRPRPNFYPRP | -0.261 |
| RRIRGRPPRLPRPRPRPFVGPRP | -0.26 |
| RRIRLRPPRLPRPRPRPSEFPRP | -0.855 |
| RRIRMRPPRLPRPRPRPPPEPRP | 1.82 |
| RRIRERPPRLPRPRPRPKLPPRP | 0.0983 |
| RRIRKRPPRLPRPRPRPQCMPRP | 0.0247 |
| RRIRIRPPRLPRPRPRPDTCPRP | 0.0578 |
| RRIRRRPPRLPRPRPRPNRWPRP | 0.107 |
| RRIRVRPPRLPRPRPRPPDRPRP | 0.379 |
| RRIRERPPRLPRPRPRPGLHPRP | -0.124 |
| RRIRFRPPRLPRPRPRPDPHPRP | 0.137 |
| RRIRRRPPRLPRPRPRPPGKPRP | 0.978 |
| RRIRARPPRLPRPRPRPCCPPRP | -0.273 |

| Sequence | shrunken log2 fold change |
| --- | --- |
| RRIRHRPPRLPRPRPRPEYAPRP | 0.0953 |
| RRIRQRPPRLPRPRPRPFIIPRP | 0.043 |
| RRIRYRPPRLPRPRPRPCQVPRP | -0.116 |
| RRIRHRPPRLPRPRPRPCMNPRP | -0.0607 |
| RRIRNRPPRLPRPRPRPFQDPRP | -0.00135 |
| RRIRMRPPRLPRPRPRPHAEPRP | 2.8 |
| RRIRSRPPRLPRPRPRPSTSPRP | -0.455 |
| RRIRARPPRLPRPRPRPHLVPRP | 0.0104 |
| RRIRERPPRLPRPRPRPVLIPRP | -0.153 |
| RRIRPRPPRLPRPRPRPHFMPRP | -0.231 |
| RRIRCRPPRLPRPRPRPNRSPRP | -0.359 |
| RRIRIRPPRLPRPRPRPCCVPRP | -0.726 |
| RRIRCRPPRLPRPRPRPSEAPRP | 0.125 |
| RRIRGRPPRLPRPRPRPVVRPRP | 0.602 |
| RRIRQRPPRLPRPRPRPNYTPRP | -0.207 |
| RRIRYRPPRLPRPRPRPELEPRP | 0.0858 |
| RRIRSRPPRLPRPRPRPRTIPRP | -0.141 |
| RRIRSRPPRLPRPRPRPIWIPRP | -0.0851 |
| RRIRPRPPRLPRPRPRPWEQPRP | 0.201 |
| RRIRYRPPRLPRPRPRPPCGPRP | -0.406 |
| RRIRHRPPRLPRPRPRPTNCPRP | -0.197 |
| RRIRMRPPRLPRPRPRPMKLPRP | -0.13 |
| RRIRPRPPRLPRPRPRPLDVPRP | -0.146 |
| RRIRKRPPRLPRPRPRPITFPRP | -0.0147 |
| RRIRYRPPRLPRPRPRPNVGPRP | -0.00664 |

| Sequence | shrunken log2 fold change |
| --- | --- |
| RRIRCRPPRLPRPRPRPDCCPRP | -0.206 |
| RRIRARPPRLPRPRPRPHFSPRP | 0.0805 |
| RRIRYRPPRLPRPRPRPDYKPRP | -0.136 |
| RRIRIRPPRLPRPRPRPLLLPRP | -0.597 |
| RRIRDRPPRLPRPRPRPHTQPRP | -0.455 |
| RRIRWRPPRLPRPRPRPQPPPRP | 0.603 |
| RRIRMRPPRLPRPRPRPGDTPRP | 0.064 |
| RRIRSRPPRLPRPRPRPVKYPRP | -0.177 |
| RRIRPRPPRLPRPRPRPACCPRP | 0.405 |
| RRIRMRPPRLPRPRPRPNEHPRP | 0.0235 |
| RRIRARPPRLPRPRPRPANQPRP | 0.0465 |
| RRIRYRPPRLPRPRPRPLMHPRP | -1.02 |
| RRIRFRPPRLPRPRPRPTPHPRP | 0.333 |
| RRIRDRPPRLPRPRPRPLATPRP | 1.1 |
| RRIRLRPPRLPRPRPRPHHHPRP | -0.6 |
| RRIRSRPPRLPRPRPRPISTPRP | -0.102 |
| RRIRWRPPRLPRPRPRPKIDPRP | 0.0747 |
| RRIRYRPPRLPRPRPRPQWTPRP | -0.0155 |
| RRIRDRPPRLPRPRPRPVKEPRP | -0.0586 |
| RRIRNRPPRLPRPRPRPNPGPRP | 0.118 |
| RRIRARPPRLPRPRPRPFFRPRP | 0.126 |
| RRIRNRPPRLPRPRPRPWEVPRP | 0.00408 |
| RRIRYRPPRLPRPRPRPRLCPRP | -0.0154 |
| RRIRCRPPRLPRPRPRPPITPRP | -0.286 |
| RRIRQRPPRLPRPRPRPFIYPRP | -0.372 |

| Sequence | shrunken log2 fold change |
| --- | --- |
| RRIRARPPRLPRPRPRPYASPRP | -0.245 |
| RRIRERPPRLPRPRPRPNNDPRP | -0.663 |
| RRIRARPPRLPRPRPRPWVFPRP | 0.276 |
| RRIRDRPPRLPRPRPRPHQQPRP | -0.0346 |
| RRIRDRPPRLPRPRPRPMYGPRP | -0.0676 |
| RRIRGRPPRLPRPRPRPKQGPRP | 0.524 |
| RRIRRRPPRLPRPRPRPRNVPRP | 0.226 |
| RRIRLRPPRLPRPRPRPADDPRP | -0.088 |
| RRIRRRPPRLPRPRPRPGVRPRP | 0.318 |
| RRIRCRPPRLPRPRPRPYYFPRP | -1.08 |
| RRIRARPPRLPRPRPRPGYSPRP | -0.35 |
| RRIRERPPRLPRPRPRPARKPRP | 0.00472 |
| RRIRVRPPRLPRPRPRPTKFPRP | -0.248 |
| RRIRMRPPRLPRPRPRPPRKPRP | 1.49 |
| RRIRGRPPRLPRPRPRPHIDPRP | 0.301 |
| RRIRHRPPRLPRPRPRPKIRPRP | -0.156 |
| RRIRRRPPRLPRPRPRPYGIPRP | -0.161 |
| RRIRARPPRLPRPRPRPWSFPRP | -0.00357 |
| RRIRLRPPRLPRPRPRPASWPRP | 0.454 |
| RRIRDRPPRLPRPRPRPSPQPRP | 0.204 |
| RRIRQRPPRLPRPRPRPFRGPRP | 0.113 |
| RRIRVRPPRLPRPRPRPSHKPRP | -0.24 |
| RRIRNRPPRLPRPRPRPFAYPRP | 0.0803 |
| RRIRWRPPRLPRPRPRPGHNPRP | 0.31 |
| RRIRVRPPRLPRPRPRPVDEPRP | 0.144 |
